Reference: patent US20220213145A1 (Bicycle, published 2022)
Starred links: 1 amine or outer side, 2 acyl side, 3 side chain; linkers in the order of their positions; H or OH if unused. Positions of bridges follow the written chain, without caps; N, C: chain ends. Non-standard residues stand in square brackets, D forms with d. Primed or numbered codes have the meaning given here. No end group written: not given here. TATA′ = 1,3,5-triacryloylhexahydro-1,3,5-triazine scaffold bound to the three cysteines; TATA = O=C(CC[*:1])N1CN(C(=O)CC[*:2])CN(C(=O)CC[*:3])C1; Phe(4-Me) = Cc1ccc(C[C@H](N)C(=O)O)cc1; Ser(ΨH,HPro) = O=C(O)[C@@H]1COCN1; Nle = CCCC[C@H](N)C(=O)O; PEG3′ = not defined here; Ac5c = NC1(C(=O)O)CCCC1

Experiments:
[1] = biological target: T1, Recombinant human CD137 homotrimer (R&D systems), biotinylated (human, UniProt Q07011 24-186, limits assumed, biotinylated with EZ-Link Sulfo-NHS-LC-LC-Biotin); test: SPR (Biacore T200), biotinylated CD137 on streptavidin
T1 construct: also called biotinylated CD137
Procedure: (§1) Biacore experiments were performed to determine kₐ (M⁻¹s⁻¹), kd (s⁻¹), KD (nM) values of peptides binding to human CD137 protein. […] The protein was desalted to remove uncoupled biotin using spin columns into PBS.
(§2) For analysis of binding, a Biacore T200 instrument was used utilising a XanTec CMD500D chip. Streptavidin was immobilized on the chip using standard amine-coupling chemistry at 25° C. with HBS-N (10 mM HEPES, 0.15 M NaCl, pH 7.4) as the running buffer. Briefly, the carboxymethyl dextran surface was activated with a 7 min injection of a 1:1 ratio of 0.4 M 1-ethyl-3-(3-dimethylaminopropyl) carbodiimide hydrochloride (EDC)/0.1 M N-hydroxy succinimide (NHS) at a flow rate of 10 μl/min. For capture of streptavidin, the protein was diluted to 0.2 mg/ml in 10 mM sodium acetate (pH 4.5) and captured by injecting 120 μl of onto the activated chip surface. Residual activated groups were blocked with a 7 min injection of 1 M ethanolamine (pH 8.5) and biotinylated CD137 captured to a level of 800-1800 RU. Buffer was changed to PBS/0.05% Tween 20 and a dilution series of the peptides was prepared in this buffer with a final DMSO concentration of 0.5%. The top peptide concentration was 500 nM or 10 μM with 6 further 3-fold (500 nm), or 2-fold (10 μM) dilutions in PBS/0.05% Tween 20. The SPR analysis was run at 25° C. at a flow rate of 90 μl/min with 60 seconds association and 100-600 seconds dissociation. After each cycle, a regeneration step (10 μl of 10 mM glycine pH 2) was employed. Data were corrected for DMSO excluded volume effects. All data were double-referenced for blank injections and reference surface using standard processing procedures and data processing and kinetic fitting were performed using Scrubber software, version 2.0c (BioLogic Software). Data were fitted using mass transport model allowing for mass transport effects where appropriate.

[2] = biological target: CD137 on Jurkat reporter cells (Promega CD137 luciferase reporter assay) (UniProt Q07011 24-255, limits assumed); test: cell-based or functional assay
[3] = biological target: T1, Recombinant human CD137 homotrimer (R&D …); test: SPR (Biacore T200), biotinylated CD137 on streptavidin (n = 2)
Procedure: as §1
as §2, with “The SPR analysis was run at 25° C. at a flow rate of 90 μl/min with 60 seconds association and 100-600 seconds dissociation. After each cycle, a regeneration step (10 μl of 10 mM glycine pH 2) was employed. Data were corrected for DMSO excluded volume effects. All data were double-referenced for blank injections and reference surface using standard processing procedures and data processing and kinetic fitting were performed using Scrubber software, version 2.0c (BioLogic Software). Data were fitted using mass transport model allowing for mass transport effects where appropriate.” left out

[4] = biological target: T2, human CD137 protein (direct binding assay) (human, UniProt Q07011 24-186, limits assumed); test: FP direct binding
T2 construct: Soluble CD137 protein titrated from 3 uM in the fluorescence polarisation assay; also called hCD137; TNFRSF9
Procedure: Affinity of the peptides of the invention for human CD137 (Ki) was determined using a fluorescence polarisation assay, in accordance with the methods disclosed in WO 2016/067035. […] CD137 protein was titrated starting at 3 μM in the same assay buffer as the peptide to assay 1 nM peptide in a total volume of 25 μL in black walled and bottomed low bind low volume 384 well plates. […] The concentrations of CD137 protein were 1 in 2 serial dilutions to give 12 different concentrations starting at 3 μM. Measurements were conducted on a BMG PHERAstar FS equipped with an FP 485 520 520 optic module at 25° C. with 200 flashes per well and a positioning delay of 0.1 second. Alternatively, the measurements were performed using Envision (PerkinElmer) equipped with FITC FP Dual Enh mirror, set to 30 flashes. Each well was measured every 5 minutes for 60 minutes. The gain used for analysis was determined for each tracer at the end of the 60 minutes where there was no protein in the well. The mP were fit to a standard 1:1 binding model with a quadratic equation to generate a Kd value.

Chain of CD137 on Jurkat reporter cells (Promega CD137 luciferase reporter assay) (Q07011 24-255 limits assumed): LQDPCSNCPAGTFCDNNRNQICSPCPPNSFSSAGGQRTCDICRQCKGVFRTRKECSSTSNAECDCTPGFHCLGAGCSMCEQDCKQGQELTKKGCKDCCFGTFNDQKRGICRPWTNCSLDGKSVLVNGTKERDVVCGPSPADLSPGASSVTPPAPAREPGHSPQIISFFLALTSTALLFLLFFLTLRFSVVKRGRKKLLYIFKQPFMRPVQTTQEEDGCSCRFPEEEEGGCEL

Kd [1] [nM]	Binder	further results
500	ACIEEGQYCFADPYXCA (ACIEEGQYCF[dA]DPY[Nle]CA; cyclised on TATA, also called A-(74-01-04)-A D-Ala8 Nle12) [BCY8217]	–
1000	Ac-ACIEEGQ[Phe(4-Me)]CFADPY[Nle]CA (linker 2-9-16 via TATA, also called Ac-(74-01-04) 4MePhe6 Nle12) [BCY8670]	–
–	ACIEEGQYCFADPYMCA (linker 2-9-16 via TATA) [BCY592]	IC50 (% inhibition of CD137L-induced NF-kB luciferase activity in CD137 Jurkat reporter cells) [2]: 3960 nM
200	Ac-AC[Ac5c]EEGQYCFADPY[Nle]CA (linker 2-9-16 via TATA, also called Ac-(74-01-04) Ac5c1 Nle12) [BCY8658]	–
–	Ac-ACIEE[Ac5c]QYCFADPY[Nle]CA (linker 2-9-16 via TATA, also called Ac-(74-01-04) Ac5c4 Nle12) [BCY8665]	Kd [3]: 200 nM
20	Ac-ACI[Ser(ΨH,HPro)]EGQYCFADPY[Nle]CA (linker 2-9-16 via TATA′, also called Ac-(74-01-04) Oxa2 Nle12) [BCY7958]	–
1000	ACIEEGQYCFXDPYXCA ([Ac]ACIEEGQYCF[Abu]DPY[Nle]CA; cyclised on TATA, also called Ac-(74-01-04) Abu8 Nle12) [BCY8676]	–
–	ACIEEGQYCFADPYXCA ([PEG3]ACIEEGQYCFADPY[tBuAla]CA; fluorescein-labelled; cyclised on TATA, also called [PEG3]-(74-01-04) tBuAla12) [BCY7210]	Kd [4]: 70 nM
10	Ac-ACIPE[dA]PYCFADPY[Nle]CA (linker 2-9-16 via TATA′, also called Ac-(74-01-04) Pro2 DAla4 Pro5 Nle12) [BCY7961]	–
–	[PEG3′]ACIEE[dF]QYCFADPY[Nle]CA (linker 3-10-17 via TATA; also: fluorescein-labelled, also called [PEG3]-(74-01-04) D-Phe4 Nle12) [BCY7166]	Kd [4]: 10 nM
–	[PEG3′]ACIEEGQYCFAAPY[Nle]CA (linker 3-10-17 via TATA; also: fluorescein-labelled, also called [PEG3]-(74-01-04) Ala9 Nle12) [BCY7290]	Kd [4]: > 3000 nM
